Source: patent US20050119176A1 (BURNHAM INSTITUTE, published 2005)
Where no end group is shown, it is not given here. [ ]: non-standard residue; d: D form. 2Nal = N[C@@H](Cc1ccc2ccccc2c1)C(=O)O; d2Nal = N[C@H](Cc1ccc2ccccc2c1)C(=O)O; 2Thi = N[C@@H](Cc1cccs1)C(=O)O; Cha = N[C@@H](CC1CCCCC1)C(=O)O; d2Thi = N[C@H](Cc1cccs1)C(=O)O; dCha = N[C@H](CC1CCCCC1)C(=O)O

Assays:
[1] = biological target: BIR3RING (human) (UniProt P98170); assay: fluorescence polarization; 20 nM rhodamine-SMAC, BIR3RING titrated
[2] = biological target: GST-BIR2 (glutathione-S-transferase-BIR2 fusion protein) (human) (UniProt P98170); assay: fluorescence polarization; 20 nM rhodamine-SMAC, GST-BIR2 from 0 to 495 nM
[3] = biological target: GST-XIAP (human, UniProt P98170 1-497); assay: cell-based or functional assay
GST-XIAP, sequence (P98170 whole entry): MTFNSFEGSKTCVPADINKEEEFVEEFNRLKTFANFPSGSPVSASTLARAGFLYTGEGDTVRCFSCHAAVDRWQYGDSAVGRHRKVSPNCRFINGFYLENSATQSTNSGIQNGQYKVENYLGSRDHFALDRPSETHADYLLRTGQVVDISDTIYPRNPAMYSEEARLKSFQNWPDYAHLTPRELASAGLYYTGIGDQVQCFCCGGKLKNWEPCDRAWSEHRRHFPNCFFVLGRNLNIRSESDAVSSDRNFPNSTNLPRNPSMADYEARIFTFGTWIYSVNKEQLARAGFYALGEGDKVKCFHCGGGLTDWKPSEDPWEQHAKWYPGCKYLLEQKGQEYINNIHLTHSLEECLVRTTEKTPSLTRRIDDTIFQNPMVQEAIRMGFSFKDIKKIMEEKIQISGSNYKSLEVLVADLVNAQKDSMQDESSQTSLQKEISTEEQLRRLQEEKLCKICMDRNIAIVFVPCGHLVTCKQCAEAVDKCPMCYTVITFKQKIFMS

GST-BIR2 (glutathione-S-transferase-BIR2 fusion protein) (human), sequence (P98170 124-240): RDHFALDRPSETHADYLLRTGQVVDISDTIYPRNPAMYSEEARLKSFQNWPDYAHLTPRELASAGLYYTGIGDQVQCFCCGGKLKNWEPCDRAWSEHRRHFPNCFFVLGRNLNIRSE
BIR3RING (human), sequence (P98170 243-497 limits assumed): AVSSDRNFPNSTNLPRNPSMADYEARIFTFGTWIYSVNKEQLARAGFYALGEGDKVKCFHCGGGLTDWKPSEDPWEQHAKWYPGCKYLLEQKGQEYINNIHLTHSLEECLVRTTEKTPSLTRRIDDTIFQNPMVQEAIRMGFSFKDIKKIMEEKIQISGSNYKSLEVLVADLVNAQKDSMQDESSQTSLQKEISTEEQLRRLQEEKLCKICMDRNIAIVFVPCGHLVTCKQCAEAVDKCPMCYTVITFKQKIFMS

Kd [1] | Kd [2] | ratio of Vmax for hydrolysis of Ac-DEVD-AFC with and without the peptide (caspase-3 + XIAP) [3] | Molecule
0.08 µM | 0.1 µM | – | rhodamine labeled SMAC (rhodamine-SMAC) of Example VII (peptide)
– | – | > 2.4 | A[dW]W[2Thi] (also: Trp of TPI 1332 batch may retain formyl groups) [TPI 1332-47 / TPI 1352-47]
– | – | > 2.4 | A[dW]W[2Thi] [TPI 1352-6]
– | – | > 2.4 | [2Nal][d2Thi][dF][dW] [TPI 1352-72]
– | – | > 2.4 | [2Nal][dCha]W[dW] [TPI 1352-66]
– | – | > 2.4 | AWW[2Thi] (also: Trp of TPI 1332 batch may retain formyl groups) [TPI 1332-1 / TPI 1352-1]
– | – | > 2.4 | [Cha][d2Nal]W[2Thi] (also: Trp may retain a formyl group) [TPI 1332-41]
